Biological target: heat-shock protein 70 (HSP70) (UniProt P0DMV8 1-641)
Experiment: co-immunoprecipitation and Western blot, HCT116 cells
Protocol: Transfected cells were first lysed in lysis buffer (50 mM Hepes (pH 7.6), 150 mM NaCl, 5 mM EDTA and 0.1% NP40) followed by immunoprecipitation using GFP-tag antibody. Immunoprecipitates were separated in a 10% SDS-polyacrylamide gel and then transferred to PVDF membranes using a wet transfer apparatus (BioRad, Hercules, Calif., USA). Membranes were first probed overnight using primary antibodies: HA-tag antibody was from Covance (Eurogentec, Angers, France), 14-3-3 from Santa-Cruz (TebuBio, Le Perray en Yvelines, France) and GFP-tag antibody from Millipore (Molsheim, France).

Chain of heat-shock protein 70 (HSP70) (P0DMV8 whole entry): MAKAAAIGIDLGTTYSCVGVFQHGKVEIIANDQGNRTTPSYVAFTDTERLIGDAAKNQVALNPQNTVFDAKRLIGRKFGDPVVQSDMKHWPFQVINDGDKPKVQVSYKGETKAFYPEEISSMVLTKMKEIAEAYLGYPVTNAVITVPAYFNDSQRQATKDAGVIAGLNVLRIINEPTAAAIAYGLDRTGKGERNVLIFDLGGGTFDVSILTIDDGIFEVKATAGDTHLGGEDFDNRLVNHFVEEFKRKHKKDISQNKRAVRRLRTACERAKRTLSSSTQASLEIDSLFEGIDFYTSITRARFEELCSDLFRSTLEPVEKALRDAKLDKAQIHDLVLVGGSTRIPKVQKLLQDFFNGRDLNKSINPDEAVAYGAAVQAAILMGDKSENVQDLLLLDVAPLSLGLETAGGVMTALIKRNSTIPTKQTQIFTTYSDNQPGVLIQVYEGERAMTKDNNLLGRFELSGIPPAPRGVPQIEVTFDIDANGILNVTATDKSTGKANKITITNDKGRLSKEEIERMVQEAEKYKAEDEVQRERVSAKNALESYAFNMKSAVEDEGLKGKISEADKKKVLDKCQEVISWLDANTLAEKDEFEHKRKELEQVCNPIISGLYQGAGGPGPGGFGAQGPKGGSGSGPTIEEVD

B1: mutated HSP110 lacking exon 9 (HSP110delE9), GFP-tagged (other)
chain: MSVVGLDVGSQSCYIAVARAGGIETIANEFSDRCTPSVISFGSKNRTIGVAAKNQQITHANNTVSNFKRFHGRAFNDPFIQKEKENLSYDLVPLKNGGVGIKVMYMGEEHLFSVEQITAMLLTKLKETAENSLKKPVTDCVISVPSFFTDAERRSVLDAAQIVGLNCLRLMNDMTAVALNYGIYKQDLPSLDEKPRIVVFVDMGHSAFQVSACAFNKGKLKVLGTAFDPFLGGKNFDEKLVEHFCAEFKTKYKLDAKSKIRALLRLYQECEKLKKLMSSNSTDLPLNIECFMNDKDVSGKMNRSQFEELCAELLQKIEVPLYSLLEQTHLKVEDVSAVEIVGGATRIPAVKERIAKFFGKDISTTLNADEAVARGCALQC
notes: Made by PCR from the GFP-HSP110 vector and cloned into the EGFp C2 vector; also called HSP110deIE9; HSP110ΔE9; not shown: GFP tag from the EGFp C2 vector into which the mutant HSP110 cDNA was cloned
binding result: no binding

Source: patent US20140038900A1 (INSTITUT NATIONAL DE LA SANTE ET DE LA RECHERCHE MEDICALE …, published 2014)
